# PMC4992421 (Nature immunology, 2016)
# B1: HLA-F open conformer (natural protein)
# MHC heavy: GSHSLRYFSTAVSRPGRGEPRYIAVEYVDDTQFLRFDSDAAIPRMEPREPWVEQEGPQYWEWTTGYAKANAQTDRVALRNLLRRYNQSEAGSHTLQGMNGCDMGPDGRLLRGYHQHAYDGKDYISLNEDLRSWTAADTVAQITQRFYEAEEYAEEFRTYLEGECLELLRRYLENGKETLQRADPPKAHVAHHPISDHEATLRCWALGFYPAEITLTWQRDGEEQTQDTELVETRPAGDGTFQKWAAVVVPPGEEQRYTCHVQHEGLPQPLILRWEQSPQPTIPI
# modifications: biotin (biotinylated monomer, site not stated)
# Assays:
# Assay in all cases: SPR
# KIR3DS1-Fc = KIR3DS1-Fc (human, UniProt Q14943)
# Chain of KIR3DS1-Fc (Q14943 22-340): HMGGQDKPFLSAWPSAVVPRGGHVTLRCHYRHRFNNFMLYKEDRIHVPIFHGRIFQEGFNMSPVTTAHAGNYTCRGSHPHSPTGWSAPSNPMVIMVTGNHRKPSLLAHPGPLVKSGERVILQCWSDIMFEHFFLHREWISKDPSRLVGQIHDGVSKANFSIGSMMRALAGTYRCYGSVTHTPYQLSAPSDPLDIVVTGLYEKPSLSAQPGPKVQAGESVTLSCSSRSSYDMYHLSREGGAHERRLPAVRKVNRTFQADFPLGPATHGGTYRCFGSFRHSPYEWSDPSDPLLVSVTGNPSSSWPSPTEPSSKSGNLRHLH
# KIR3DL1-Fc = KIR3DL1-Fc (human, UniProt P43629)
# Chain of KIR3DL1-Fc (P43629 22-340): as the sequence (Q14943 22-340) above, with V47I, G58S, M92V, R136K, W138G, S163P, R166L, L199P, L315P counted along it
# KIR3DL2-Fc = KIR3DL2-Fc (human, UniProt P43630)
# Chain of KIR3DL2-Fc (P43630 22-340): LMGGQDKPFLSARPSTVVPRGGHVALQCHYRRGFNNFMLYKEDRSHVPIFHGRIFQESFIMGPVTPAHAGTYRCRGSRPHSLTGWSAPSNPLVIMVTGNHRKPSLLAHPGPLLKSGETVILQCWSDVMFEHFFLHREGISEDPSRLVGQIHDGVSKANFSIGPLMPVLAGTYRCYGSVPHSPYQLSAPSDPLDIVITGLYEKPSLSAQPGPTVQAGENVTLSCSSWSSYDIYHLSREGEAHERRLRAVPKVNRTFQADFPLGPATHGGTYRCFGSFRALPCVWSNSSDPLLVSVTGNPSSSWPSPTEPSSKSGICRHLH
binder,measurement,setting,value
B1,Kd,KIR3DS1-Fc,25 nM
same,koff,KIR3DS1-Fc,0.0007 s⁻¹
same,kon,KIR3DS1-Fc,28400 M⁻¹ s⁻¹
same,Kd,KIR3DL1-Fc,157 nM
same,koff,KIR3DL1-Fc,0.00691 s⁻¹
same,kon,KIR3DL1-Fc,44000 M⁻¹ s⁻¹
same,Kd,KIR3DL2-Fc,118 nM
same,koff,KIR3DL2-Fc,0.00508 s⁻¹
same,kon,KIR3DL2-Fc,43000 M⁻¹ s⁻¹
